One experiment concerns the target T1, Human GDF15 protein (human, UniProt Q99988 197-308).
T1 construct: Natural GDF15 is said to be a disulfide-linked homodimer; also called Human-GDF15-his
T1 sequence: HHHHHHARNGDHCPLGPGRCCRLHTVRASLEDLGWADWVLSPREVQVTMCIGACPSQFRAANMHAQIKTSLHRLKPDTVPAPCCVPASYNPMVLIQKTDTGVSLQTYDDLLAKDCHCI
Put plainly: BLI (Fortebio Octet), antibody on AHC sensor, GDF15 as analyte, 1:1 model. On the technique in general: BLI is a label-free optical method that tracks binding on a fibre tip over time.

Experiment [1] has as its target T2, Cynomolgus monkey GDF15 protein (cynomolgus monkey, UniProt G7PWZ3 193-308).
T2 construct: Bought protein (Kactus Biosystems GDF-CE115); also called Cynomolgus GDF15 protein; Cynomolgus-GDF15
T2 sequence: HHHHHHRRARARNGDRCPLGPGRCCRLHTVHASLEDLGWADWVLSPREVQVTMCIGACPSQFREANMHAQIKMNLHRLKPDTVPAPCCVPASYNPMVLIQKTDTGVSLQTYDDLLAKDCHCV
Described as above.

Another experiment has as its target T3, Mouse GDF15 protein (mouse, UniProt Q9Z0J7 189-303).
T3 sequence: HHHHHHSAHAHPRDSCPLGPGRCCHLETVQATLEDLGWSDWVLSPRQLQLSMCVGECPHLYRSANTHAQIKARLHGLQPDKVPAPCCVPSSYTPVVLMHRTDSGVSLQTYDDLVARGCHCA
The experiment is described as above.

Experiment [2] concerns the target T4, human GDNF protein (human, UniProt P39905 78-211).
T4 construct: Bought
T4 sequence (looked up): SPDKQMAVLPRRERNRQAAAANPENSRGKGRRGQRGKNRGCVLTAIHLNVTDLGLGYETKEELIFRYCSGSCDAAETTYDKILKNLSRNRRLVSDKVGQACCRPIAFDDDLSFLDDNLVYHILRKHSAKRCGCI
Description: ELISA, coated protein, antibody at 4 µg/mL. In general terms: ELISA stands for enzyme-linked immunosorbent assay.

The target of experiment [3] is T4, human GDNF protein. Description: ELISA, coated protein.
Experiment [4] concerns the target T4, human GDNF protein. Description: ELISA, coated protein, antibody at 4 µg/mL. This is another data set of the same source.
A further experiment deals with T5, human TGFβ1 protein (human, UniProt P01137 279-390).
T5 construct: Bought
T5 sequence (P01137 279-390 limits assumed): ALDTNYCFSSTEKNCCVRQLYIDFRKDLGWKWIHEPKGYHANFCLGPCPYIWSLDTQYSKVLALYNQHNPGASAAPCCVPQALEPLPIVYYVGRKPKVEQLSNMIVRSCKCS
Put plainly: ELISA, coated protein, antibody at 4 µg/mL.

The target in another experiment is T6, human BMP4 protein (human, UniProt P12644 293-408).
T6 construct: Bought
T6 sequence (looked up): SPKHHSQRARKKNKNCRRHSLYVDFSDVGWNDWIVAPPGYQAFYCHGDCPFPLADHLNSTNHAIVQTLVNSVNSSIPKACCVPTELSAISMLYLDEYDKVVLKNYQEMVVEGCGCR
Put plainly: ELISA, coated protein, antibody at 4 µg/mL.

The target in another experiment is T7, human GDF1 protein (human, UniProt P27539 254-372, limits assumed).
T7 construct: Bought
T7 sequence (looked up): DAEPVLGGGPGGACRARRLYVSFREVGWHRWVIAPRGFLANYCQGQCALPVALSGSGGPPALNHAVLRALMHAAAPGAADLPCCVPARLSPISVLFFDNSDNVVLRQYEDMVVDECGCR
Put plainly: ELISA, coated protein, antibody at 4 µg/mL.

For a further experiment, the target named is T8, human Activin A protein (human, UniProt P08476 311-426).
T8 construct: Bought; Activin A is by nature a dimer of inhibin beta A chains
T8 sequence (looked up): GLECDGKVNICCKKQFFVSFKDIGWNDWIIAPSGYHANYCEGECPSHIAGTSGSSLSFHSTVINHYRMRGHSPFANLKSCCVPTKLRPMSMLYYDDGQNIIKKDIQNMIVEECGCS
Description: ELISA, coated protein, antibody at 4 µg/mL.

In the next experiment the target is T9, human GFRα1 protein (human, UniProt P56159 25-429, limits assumed).
T9 construct: Bought
T9 sequence (looked up): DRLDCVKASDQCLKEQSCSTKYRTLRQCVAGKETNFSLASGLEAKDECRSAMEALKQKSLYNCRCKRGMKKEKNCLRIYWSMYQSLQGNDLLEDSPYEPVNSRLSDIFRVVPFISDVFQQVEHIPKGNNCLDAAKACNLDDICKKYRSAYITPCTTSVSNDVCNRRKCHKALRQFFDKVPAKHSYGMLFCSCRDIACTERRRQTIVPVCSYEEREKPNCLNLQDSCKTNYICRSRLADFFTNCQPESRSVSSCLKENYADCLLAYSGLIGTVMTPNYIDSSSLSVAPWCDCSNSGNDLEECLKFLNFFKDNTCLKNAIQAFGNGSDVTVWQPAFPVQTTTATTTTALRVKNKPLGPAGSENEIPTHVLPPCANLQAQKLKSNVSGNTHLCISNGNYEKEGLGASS
Put plainly: ELISA, coated protein, antibody at 4 µg/mL.

In the next experiment the target is T10, human Activin B protein (human, UniProt P09529 293-407).
T10 construct: Bought; Activin B is by nature a dimer of inhibin beta B chains
T10 sequence (looked up): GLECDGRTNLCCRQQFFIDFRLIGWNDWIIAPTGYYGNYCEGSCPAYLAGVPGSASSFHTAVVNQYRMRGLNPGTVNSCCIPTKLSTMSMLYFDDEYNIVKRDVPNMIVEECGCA
Put plainly: ELISA, coated protein, antibody at 4 µg/mL.

In the next experiment the target is T11, human BMP2 protein (human, UniProt P12643 283-396).
T11 construct: Bought
T11 sequence (P12643 283-396 limits assumed): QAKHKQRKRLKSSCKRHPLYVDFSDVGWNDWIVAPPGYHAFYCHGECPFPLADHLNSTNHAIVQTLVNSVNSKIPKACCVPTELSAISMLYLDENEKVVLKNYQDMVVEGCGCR
Description: ELISA, coated protein, antibody at 4 µg/mL.

The next experiment deals with T12, human GDF11 protein (human, UniProt O95390 299-407).
T12 construct: Bought
T12 sequence (looked up): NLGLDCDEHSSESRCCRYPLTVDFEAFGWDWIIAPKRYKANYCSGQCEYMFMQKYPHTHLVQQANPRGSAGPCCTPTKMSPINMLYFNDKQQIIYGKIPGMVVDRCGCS
Put plainly: ELISA, coated protein, antibody at 4 µg/mL.

Experiment [5] deals with T4, human GDNF protein. Put plainly: ELISA, coated protein, antibody at 4 µg/mL. The source holds these as a separate data set.
The target in a further experiment is T13, human FcRn protein (human, UniProt P55899 24-297).
T13 construct: Bought, loaded on a streptavidin (SA) sensor; FcRn is by nature a heterodimer with beta-2-microglobulin
T13 sequence (P55899 24-297 limits assumed, form in doubt): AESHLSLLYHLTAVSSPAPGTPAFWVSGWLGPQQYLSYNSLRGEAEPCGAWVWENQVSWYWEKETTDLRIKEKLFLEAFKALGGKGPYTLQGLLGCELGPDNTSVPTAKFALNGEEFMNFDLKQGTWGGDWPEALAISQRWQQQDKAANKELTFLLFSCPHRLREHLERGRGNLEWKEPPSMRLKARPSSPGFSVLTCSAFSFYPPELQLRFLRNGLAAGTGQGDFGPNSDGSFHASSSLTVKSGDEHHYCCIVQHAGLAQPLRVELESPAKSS
Description: BLI (Octet RED96e), FcRn on SA sensor, antibody as analyte, binding and dissociation at pH 6.0, 1:1 model.

Where two headings read alike, the source gives them in different places. A value given as a limit tells only on which side of the number the result lay.

As usually defined, the Kd is a measure of binding affinity in units of concentration. Usually koff stands for the first-order rate constant of dissociation. One may read the kon as the second-order rate constant of association.

B1: HuVHH43-3 (Fc fusion)
heavy: QLQLVESGGGLVQPGGSLRLSCAASGHTYGMGWFRQAPGKAREIVSAISRSGSSTYYADSVKGRFTISRDNSKNTLYLQMNSLRAEDTAVYICGASTSALVPTTTGMYAYWGQGTRVTVSSEPKSSDKTHTCPPCPAPEAAGAPSVFLFPPKPKDTLMISRTPEVTCVVVDVSHEDPEVKFNWYVDGVEVHNAKTKPREEQYNSTYRVVSVLTVLHQDWLNGKEYKCKVSNKALPAPIEKTISKAKGQPREPQVYTLPPSREEMTKNQVSLTCLVKGFYPSDIAVEWESNGQPENNYKTTPPVLDSDGSFFLYSKLTVDKSRWQQGNVFSCSVMHEALHNHYTQKSLSLSPGK
notes: also called huVHH43-IgG1-mut(L234A,L235A,G237A); VHH humanized anti-GDF15 antibody
As to B1, the equilibrium dissociation constant (Kd) with Human GDF15 protein was below 0.001 nM; in experiment [1], below 0.001 nM; in the experiment with Mouse GDF15 protein, 1.25 nM. Besides, the figures for the dissociation rate constant (koff) (with Human GDF15 protein; in experiment [1]; in the experiment with Mouse GDF15 protein) were below 1e-07 s⁻¹, below 1e-07 s⁻¹ and 6.58e-05 s⁻¹, respectively. The association rate constant (kon) in the experiment with Human GDF15 protein turned out to be 573000 M⁻¹ s⁻¹; in experiment [1], 205000 M⁻¹ s⁻¹; with Mouse GDF15 protein, 52500 M⁻¹ s⁻¹. For the same molecule, in the experiment with human GDNF protein [2], the OD value (OD 450 nm-620 nm) turned out to be 0.273.

B2: Hu21H6D2 (antibody, human IgG1, kappa, V domains shown)
VH: QVQLVQSGAEVKKPGASVKVSCKASGYTFTGYIMNWVRQAPGQRLEWMGDIDPYYGDAKYNQKFKGKVTITVDKSASTAYMELSSLRSEDTAVYYCARRDYDHGSFAYWGQGTLVTVSS
VL: EIVLTQSPDFQSVTPKEKVTITCSASSSVNYMHWYQQKPDQSPKRLIYDTSKLASGVPSRFSGSGSGTDYTLTINSLEAEDAATYYCQQWSSNPPTFGQGTKLEIKR
notes: Humanized form of murine 21H6D2; human IgG1 constant region with L234A, L235A, G237A and kappa light chain constant region; also called hu21H6D2-IgG1-mut(L234A,L235A,G237A)
In the experiment with Human GDF15 protein, B2 gave a Kd of 0.0515 nM, an off-rate (koff) of 4.87e-05 s⁻¹ and an on-rate constant (kon) of 946000 M⁻¹ s⁻¹. In [1], this molecule displayed a Kd of 0.231 nM, an off-rate (koff) of 6.13e-05 s⁻¹ and a kon of 265000 M⁻¹ s⁻¹. For the same molecule, in the experiment with Mouse GDF15 protein, the Kd stood at 10.6 nM, the off-rate (koff) turned out to be 0.00116 s⁻¹ and the on-rate constant (kon) amounted to 110000 M⁻¹ s⁻¹. In addition, the binding result in the experiment with human GDNF protein [3] was “no binding (tested: 4 µg/mL)”. In the experiment with human GDNF protein [4], this molecule displayed an OD value of 0.105 OD 450 nm-620 nm.

B3: Hu19C4C7 (antibody, human IgG1, kappa)
heavy: QVQLVQSGAEVKKPGSSVKVSCKASGYSFTGYIMNWVRQAPGQSLEWMGDIDPYYGGPNYNQKFQGRVTITVDKSTSTAYMELSSLRSEDTAVYYCSRRDYNYGSFAYWGQGTLVTVSSASTKGPSVFPLAPSSKSTSGGTAALGCLVKDYFPEPVTVSWNSGALTSGVHTFPAVLQSSGLYSLSSVVTVPSSSLGTQTYICNVNHKPSNTKVDKKVEPKSCDKTHTCPPCPAPEAAGAPSVFLFPPKPKDTLMISRTPEVTCVVVDVSHEDPEVKFNWYVDGVEVHNAKTKPREEQYNSTYRVVSVLTVLHQDWLNGKEYKCKVSNKALPAPIEKTISKAKGQPREPQVYTLPPSREEMTKNQVSLTCLVKGFYPSDIAVEWESNGQPENNYKTTPPVLDSDGSFFLYSKLTVDKSRWQQGNVFSCSVMHEALHNHYTQKSLSLSPGK
light: QIVLTQSPATLSLSPGERATLSCRASSSVNYMHWYQQKPGQAPRPLIYATSNLATGIPARFSGSGSGTDYTLTISSLEPEDFAVYYCQQWSDNPPTFGQGTKLEIKRTVAAPSVFIFPPSDEQLKSGTASVVCLLNNFYPREAKVQWKVDNALQSGNSQESVTEQDSKDSTYSLSSTLTLSKADYEKHKVYACEVTHQGLSSPVTKSFNRGEC
notes: Humanized form of murine 19C4C7; human IgG1 constant region with L234A, L235A, G237A and kappa light chain constant region; also called hu19C4C7-IgG1-mut(L234A,L235A,G237A)
As for B3, the Kd was 0.0264 nM with Human GDF15 protein, 0.312 nM in [1], 14.9 nM in the experiment with Mouse GDF15 protein and 7.41 nM with human FcRn protein. The dissociation rate constant (koff) with Human GDF15 protein worked out at 2.35e-05 s⁻¹; in experiment [1] it was 8.24e-05 s⁻¹; with Mouse GDF15 protein, 0.00241 s⁻¹; with human FcRn protein, 0.0146 s⁻¹. Further, the kon with Human GDF15 protein is 887000 M⁻¹ s⁻¹; in experiment [1], 265000 M⁻¹ s⁻¹; with Mouse GDF15 protein, 162000 M⁻¹ s⁻¹; with human FcRn protein, 1.97e+06 M⁻¹ s⁻¹. Further, the OD value was determined as 0.103 OD 450 nm-620 nm in the experiment with human TGFβ1 protein; 0.0587 OD 450 nm-620 nm in the experiment with human BMP4 protein; 0.201 OD 450 nm-620 nm with human GDF1 protein; 0.0595 OD 450 nm-620 nm with human Activin A protein; 0.11 OD 450 nm-620 nm with human GFRα1 protein; 0.12 OD 450 nm-620 nm in the experiment with human Activin B protein. Besides, the OD value in the experiment with human BMP2 protein is 0.0764 OD 450 nm-620 nm; in the experiment with human GDF11 protein, 0.0735 OD 450 nm-620 nm; in the experiment with human GDNF protein [5] it was 0.241 OD 450 nm-620 nm; with human GDNF protein [4], 0.0531 OD 450 nm-620 nm. Further, in the experiment with human GDNF protein [3], the binding result is reported as “no binding (tested: 4 µg/mL)”.

The record behind these values is patent publication EP4818204A1 (Nanjing Leads Biolabs Co., Ltd., dated 2026).
